One data set has as its system MCF7. Kind of data set: percentage of EdU-negative (G0-arrested) nuclei per well, 72 h; higher = more G0 arrest. As to conditions: reference: sequence is the full UniProt precursor, the tested protein was the secreted form or ectodomain.
The subject of the next data set is hTERT-HMEC. The data set is described as above. The settings on record: reference: sequence is the full UniProt precursor, the tested protein was the secreted form or ectodomain.
The mark [1] stands for this setting: protein concentration 0.0225 µM.
[2] abbreviates: protein concentration 0.03125 µM.
[3] abbreviates: protein concentration 0.3125 µM.
Where [4] appears, read: protein concentration 0.018565 µM.
Setting [5] is: protein concentration 0.18565 µM.

Experimental findings from the supplement of paper PMC11316812 are described below.

± gives the standard deviation of the averaged measurements.
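Further: secreted proteins added to cultured cells, EdU pulse at the end, nuclei found by Hoechst imaging, EdU status from nuclear versus surrounding ring intensity ratio, PBS as neutral control.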

On to “MSISLSSLILLPIWINMAQIQQGGPDEKEKTTALKDLLSRIDLDELMKKDEPPLDFPDTLEGFEYAFNEKGQLRHIKTGEPFVFNYREDLHRWNQKRYEALGEIITKYVYELLEKDCNLKKVSIPVDATESEPKSFIFMSEDALTNPQKLMVLIHGSGVVRAGQWARRLIINEDLDSGTQIPFIKRAVAEGYGVIVLNPNENYIEVEKPKIHVQSSSDSSDEPAEKRERKDKVSKETKKRRDFYEKYRNPQREKEMMQLYIRENGSPEEHAIYVWDHFIAQAAAENVFFVAHSYGGLAFVELMIQREADVKNKVTAVALTDSVHNVWHQEAGKTIREWMRENCCNWVSSSEPLDTSVESMLPDCPRVSAGTDRHELTSWKSFPSIFKFFTEASEAKTSSLKPAVTRRSHRIKHEEL [Q8WUF8]”, for which the “percentage of EdU-negative” value in the data set on MCF7 (setting [1]) was determined as 24.1 ± 1.1%; with MCF7 (protein concentration 0.225 µM) it was 24 ± 0.46%; in the data set on hTERT-HMEC (setting [1]), 4.387 ± 0.021%; with hTERT-HMEC (protein concentration 0.225 µM), 5.5592 ± 0.0051%.
The corresponding values for “MSLMVVSMVCVGFFLLQGAWPHEGVHRKPSLLAHPGPLVKSEETVILQCWSDVRFQHFLLHREGKFKDTLHLIGEHHDGVSKANFSIGPMMQDLAGTYRCYGSVTHSPYQLSAPSDPLDIVITGLYEKPSLSAQPGPTVLAGESVTLSCSSRSSYDMYHLSREGEAHERRFSAGPKVNGTFQADFPLGPATHGGTYRCFGSFRDSPYEWSNSSDPLLVSVTGNPSNSWPSPTEPSSETGNPRHLHVLIGTSVVIILFILLLFFLLHRWCCNKKNAVVMDQEPAGNRTVNREDSDEQDPQEVTYAQLNHCVFTQRKITRPSQRPKTPPTDIIVYTELPNAEP” are 22.6 ± 0.43%, 26.6 ± 2.4%, 5.55 ± 0.17% and 11.3 ± 1.1%.
As to “MSLRLDTTPSCNSARPLHALQVLLLLSLLLTALASSTKGQTKRNLAKGKEESLDSDLYAELRCMCIKTTSGIHPKNIQSLEVIGKGTHCNQVEVIATLKDGRKICLDPDAPRIKKIVQKKLAGDESAD”, the “percentage of EdU-negative” value in the data set on MCF7 (setting [2]) came to 26.14 ± 0.19%; in the data set on MCF7 (setting [3]), 26.53 ± 0.004%; in the data set with hTERT-HMEC (setting [2]), 5.49 ± 1.9%; in the data set with hTERT-HMEC (setting [3]), 4.65 ± 0.1%.
As for “MSLSAFTLFLALIGGTSGQYYDYDFPLSIYGQSSPNCAPECNCPESYPSAMYCDELKLKSVPMVPPGIKYLYLRNNQIDHIDEKAFENVTDLQWLILDHNLLENSKIKGRVFSKLKQLKKLHINHNNLTESVGPLPKSLEDLQLTHNKITKLGSFEGLVNLTFIHLQHNRLKEDAVSAAFKGLKSLEYLDLSFNQIARLPSGLPVSLLTLYLDNNKISNIPDEYFKRFNALQYLRLSHNELADSGIPGNSFNVSSLVELDLSYNKLKNIPTVNENLENYYLEVNQLEKFDIKSFCKILGPLSYSKIKHLRLDGNRISETSLPPDMYECLRVANEVTLN”, the “percentage of EdU-negative” value worked out at 25.7 ± 0.65% in the data set on MCF7 (setting [4]), 25.1 ± 0.99% with MCF7 (setting [5]), 5.59 ± 1.8% in the data set with hTERT-HMEC (setting [4]) and 6.27 ± 1.2% in the data set on hTERT-HMEC (setting [5]).
In the case of “MSLSFLLLLFFSHLILSAWAHGEKRLAPKGQPGPAATDRNPRGSSSRQSSSSAMSSSSASSSPAASLGSQGSGLEQSSFQWSPSGRRTGSLYCRVGIGFHLQIYPDGKVNGSHEANMLSVLEIFAVSQGIVGIRGVFSNKFLAMSKKGKLHASAKFTDDCKFRERFQENSYNTYASAIHRTEKTGREWYVALNKRGKAKRGCSPRVKPQHISTHFLPRFKQSEQPELSFTVTVPEKKKPPSPIKPKIPLSAPRKNTNSVKYRLKFRFG”, the “percentage of EdU-negative” value in the data set on MCF7 (setting [2]) is 27.9 ± 2.3%; in the data set on MCF7 (setting [3]), 28 ± 0.77%; in the data set on hTERT-HMEC (setting [2]), 4.71 ± 0.44%; in the data set on hTERT-HMEC (setting [3]), 5.28 ± 0.53%.
For “MSLVLLSLAALCRSAVPREPTVQCGSETGPSPEWMLQHDLIPGDLRDLRVEPVTTSVATGDYSILMNVSWVLRADASIRLLKATKICVTGKSNFQSYSCVRCNYTEAFQTQTRPSGGKWTFSYIGFPVELNTVYFIGAHNIPNANMNEDGPSMSVNFTSPGCLDHIMKYKKKCVKAGSLWDPNITACKKNEETVEVNFTTTPLGNRYMALIQHSTIIGFSQVFEPHQKKQTRASVVIPVTGDSEGATVQLTPYFPTCGSDCIRHKGTVVLCPQTGVPFPLDNNKSKPGGWLPLLLLSLLVATWVLVAGIYLMWRHERIKKTSFSTTTLLPPIKVLVVYPSEICFHHTICYFTEFLQNHCRSEVILEKWQKKKIAEMGPVQWLATQKKAADKVVFLLSNDVNSVCDGTCGKSEGSPSENSQDLFPLAFNLFCSDLRSQIHLHKYVVVYFREIDTKDDYNALSVCPKYHLMKDATAFCAELLHVKQQVSAGKRSQACHDGCCSL [Q9NRM6]”, the “percentage of EdU-negative” value with MCF7 (setting [1]) was 25.3 ± 1.3%; with MCF7 (protein concentration 0.225 µM), 26.76 ± 0.21%; in the data set on hTERT-HMEC (setting [1]), 4.78 ± 0.46%; with hTERT-HMEC (protein concentration 0.225 µM) it was 5.29 ± 0.1%.
